For experiment [1], the target named is targeted IgG-IL2 (interleukin-2 fused to the C-terminus of a heavy chain of an antibody specifically binding to a therapeutic target). Description: bridging ELISA, drug-Bi and drug-Dig, human pooled serum, binder 125 ng/mL assay / 2500 ng/mL matrix.
Experiment [2] has as its target TCB (T-cell bispecific format) drug antibody. Described as above.
Experiment [3] has as its target targeted IgG-IL2 (interleukin-2 fused to the C-terminus of a heavy chain of an antibody specifically binding to a therapeutic target). Description: bridging ELISA, drug-Bi and drug-Dig, human pooled serum, binder 63 ng/mL assay / 1250 ng/mL matrix.
The target of experiment [4] is non-targeted IgG-IL2 (interleukin-2 fused to the C-terminus of a heavy chain of a germline antibody, which is not binding to a target). The experiment is described as above.
Experiment [5] has as its target TCB (T-cell bispecific format) drug antibody. The description is as above.
Experiment [6] concerns the target targeted IgG-IL2 (interleukin-2 fused to the C-terminus of a heavy chain of an antibody specifically binding to a therapeutic target). The experiment can be described thus: bridging ELISA, drug-Bi and drug-Dig, human pooled serum, binder 500 ng/mL assay / 10000 ng/mL matrix.
The target in experiment [7] is non-targeted IgG-IL2 (interleukin-2 fused to the C-terminus of a heavy chain of a germline antibody, which is not binding to a target). The experiment is described as above.
Experiment [8] has as its target TCB (T-cell bispecific format) drug antibody. The experiment is described as above.
For experiment [9], the target named is targeted IgG-IL2 (interleukin-2 fused to the C-terminus of a heavy chain of an antibody specifically binding to a therapeutic target). The experiment can be described thus: bridging ELISA, drug-Bi and drug-Dig, human pooled serum, binder 1.0 ng/mL assay / 20 ng/mL matrix.
Experiment [10] deals with non-targeted IgG-IL2 (interleukin-2 fused to the C-terminus of a heavy chain of a germline antibody, which is not binding to a target). Described as above.
Experiment [11] addresses TCB (T-cell bispecific format) drug antibody. Described as above.
In experiment [12] the target is targeted IgG-IL2 (interleukin-2 fused to the C-terminus of a heavy chain of an antibody specifically binding to a therapeutic target). Description: bridging ELISA, drug-Bi and drug-Dig, human pooled serum, binder 0.12 ng/mL assay / 2.4 ng/mL matrix.
Experiment [13] has as its target non-targeted IgG-IL2 (interleukin-2 fused to the C-terminus of a heavy chain of a germline antibody, which is not binding to a target). The experiment is described as above.
In experiment [14] the target is TCB (T-cell bispecific format) drug antibody. The experiment is described as above.

B1: multivalent anti-PG antibody derived from clone 1.7.24 (mixed Pool 2, 3, 4) (antibody, V domains shown)
VH: EVKLLESGGGLVQPGGSLKLSCAASGFDFSRYWMNWVRQAPGKGLEWIGEITPDSSTINYTPSLKDKFIISRDNAKNTLYLQMIKVRSEDTALYYCVRPYDYGAWFASWGQGTLVTVSA
VL: QAVVTQESALTTSPGETVTLTCRSSTGAVTTSNYANWVQEKPDHLFTGLIGGTNKRAPGVPARFSGSLIGDKAALTITGAQTEDEAIYFCALWYSNHWVFGGGTKLTVL
modifications: lysine amines derivatised with SATP or MHS and cross-linked (sites not given)
Consider B1, for which the signal [AU] in experiment [1] was determined as 3.05 AU; in [2], 3.05 AU; in experiment [3], 2.63 AU; in experiment [4], 0.77 AU; in experiment [5], 2.86 AU; in [6], 3.01 AU. Also, the signal [AU] came to 2.81 AU in experiment [7]; 2.99 AU in experiment [8]; 0.0975 AU in [9]; 0.0485 AU in experiment [10]; 0.12 AU in experiment [11]; 0.044 AU in experiment [12]. In addition, the signal [AU] in experiment [13] was 0.0395 AU; in [14], 0.0555 AU.

These data come from patent US20240410900A1.
